Common to all, as to assay: BLI, IgG
Experiment [1] addresses RSV prefusion F (preF), subtype A (respiratory syncytial virus, subtype A, UniProt P03420 26-513).
Experiment [2] concerns the target T1, RSV postfusion F (postF), subtype A (respiratory syncytial virus, subtype A, UniProt P03420 26-513).
T1 construct: also called F ΔFP; Postfusion subtype A

The target in experiment [3] is RSV prefusion F (preF), subtype B (respiratory syncytial virus, subtype B).

Positions count from the first letter of the chain named.

By Kd is commonly meant the free concentration of one partner at which half of the binding sites on the other are occupied at equilibrium, for simple one-to-one binding. Read a high Kd as lower affinity.

B1: ADI-21021 (antibody, V domains shown)
VH: QVQLQQWGAGLLKPSETLSLTCAVHGGSFSGFYWSWIRQSPGKGLEWIAEINDSGNTNHNPSLKSRVTISIDTSKNQFSLNVSSVTAADTAVYYCAKNGGGHHYVGTLRFRSRAFDIWGQGTMVTVSS
VL: EIVMTQSPSTLSASVGDRVTITCRASQSIGNRLAWYQQKPGKAPKLLISLASGLETGVPSRFSGSGSGTEFTLTITSLQPDDFATYYCQQYSSYGTFGQGTKLEIK
notes: also called Ab 270
As to B1, the Kd in experiment [1] amounted to 2550 pM; in experiment [3], 4500 pM. In experiment [2], the binding result is listed as “no binding”.

B2: ADI-20982 (antibody, V domains shown)
VH: EVQLVESGPGLVKPSQTLSLTCSVSGVSISRGSYYWSWIRQPAGGGLEWIGRIYTSGVTRYNPSLESRVTISLDSSQNQFFLRLSSVTAADTAVYYCATRESASYSSGPDAFDIWGQGTTVTVSS
VL: DIQMTQSPSTLSASVGDRVIITCRASQSVNSWLAWYQQKPGKAPKLLIYQASSLESGVPSRFSGSGSGTEFTLTINSLQPDDFATYYCQQYKTFSRPFGQGTKVEIK
As to B2, the figures for the Kd in experiment [1] and in experiment [3] were 4880 pM and 5450 pM, respectively. Moreover, the binding result in experiment [2] is given as “no binding”.

B3: ADI-20992 (antibody, V domains shown)
VH: EVQLVESGGGLVQPGGSLRLSCVVSGFTFKSYWMTWVRQAPGKGLEWVANIKEDGSEKYYVDSVKGRFTISRDNARNSLFLQMNSLRADDTAVYYCARNLEVSNEFYVVTDNYYLMDVWGQGTTVTVSS
VL: DIQLTQSPSSLSASVGDRVTITCRASQSISFFLNWYRQKPGKAPKLLIYAASTLQSGVPSRFSGSGSGTDFTLTISSLQPEDFASYYCQQSYSTPHTFGQGTKVEIK
As for B3, the Kd in experiment [1] came to 956 pM; in experiment [3], 1220 pM. Moreover, in experiment [2], the binding result is on record as “no binding”.

B4: ADI-21029 (antibody, V domains shown)
VH: QVQLVQSGAEVRKPGESLKISCKASGYSFTNYWIGWVRQMPGKGLEWMGIVYPADSHPVYSPSFQGQVTFSTDKSINTAYLQWSSLKASDTAMYFCARRDGGTDYLSDAFDIWGQGTMVTVSS
VL: B3 VL with Q3V, L4M, A25T, S30R, F31R, F32Y, R37Q, T53S, S85T, H96N
For B4, the results for the Kd in experiment [1] and in experiment [3] were 3770 pM and 8380 pM, respectively. The binding result in experiment [2] is “no binding”.

B5: ADI-21023 (antibody, V domains shown)
VH: EVQLVESGGGLVKPGGSLRLSCAASGFRFSSYGMHWVRQAPGRGLEWVSSITAGSSYMDYADSVKGRFSISRDNAKTSLYLQMNSLRAEDTAIYYCARENYDTGRGLNWFDPWGQGTLVTVSS
VL: QSVVTQPPSVSGAPGQRVTISCTGSSSNIGAGYDVHWYRQLPGTAPEVLIYGNNNRPSGVPDRFSGSKTGTSASLAITGLLAEDGADYYCQSYDRSQLWVFGGGTQLTVP
In the case of B5, the Kd is 264 pM in experiment [1] and 316 pM in experiment [3]. Further, the binding result in experiment [2] is “no binding”.

B6: ADI-20983 (antibody, V domains shown)
VH: EVQLVESGGALVQPGGSLRLSCSASGFTFSSYAMHWVRQAPGKGLEYVSAINNFGDKTYYTDSVEGRFTISRDNSKKTLYLQMSSLRPEDTAVYYCVKDRGYCSSPSCYAVPYYYFYGMDVWGQGTTVTVSS
VL: EIVMTQSPSSLSASVGDRVTITCQASQGISNYLHWYQQKPGKAPKLLIYDASNLEAGVPSRFSGSGAGTDFTFTISSLQPEDVATYYCQHYNNLPFTFGPGTKVDIK
For the molecule B6, the Kd was found to be 213 pM in experiment [1], 2050 pM in experiment [2] and 1170 pM in experiment [3].

B7: ADI-20973 (antibody, V domains shown)
VH: EVQLLESGGGLVKPAGSLRLSCAASGFSFSSYYMNWIRQAPGKGLEWVSDISGGSSYTNYADSVKGRFTVSRDNAKNSVYLQMNSLRGEDTAVYYCARGASTAATYTPTFDYWGQGILVTVSS
VL: QPVLTQPPSVSGAPGQRVTISCTGSSSNIGAGYDVHWYQQLPGTAPKLLMFGNNNRPSGVPDRFSGSKSGTSASLAITGLRPEDEADYYCQSYDRRLTVVFGGGTKLTVL
Take B7: the figures for the Kd in experiment [1] and in experiment [3] were 308 pM and 417 pM, respectively. The binding result in experiment [2] is “no binding”.

B8: ADI-20974 (antibody, V domains shown)
VH: EVQLVESGGGLVKPGGSLRLSCAASGFSFSSYQINWVRQAPGKGLEWVSSISGGSSYTDYADSIKGRFTISRDNAKKSAFLQMKSLRADDTAVYYCARALMATAGGLAFDIWGQGTMVTVSS
VL: B7 VL with S26G, L41V, M50I, F51L, G52R, N54T, R81Q, P82A, R96S, T98S
With B8, the Kd in experiment [1] came out at 291 pM; in experiment [3], 360 pM. In addition, the binding result in experiment [2] was “no binding”.

B9: ADI-20999 (antibody, V domains shown)
VH: QVQLQESGPVLVKPSETLSLTCTVSGGSITSSAYYWGWIRQPPGKGLEWIGSVSYSGTTSYTPSLKSRVTISGDASKEQFSLNLRSVTAADTAVYYCARQTKAFGRRDYGMDVWGQGTTVTVSS
VL: QPVLTQPPSVSAAPGQKVTISCSGSNSNIGSNFVSWYQQLPGTAPKLLIYENNKRPSGIPDRFSGSKSGPSATLGITGLQTEDEADYYCGTWDTGLSAHWVFGGGTKLTVL
notes: also called Ab 250
Turning to B9, the Kd in experiment [1] stood at 4160 pM; in experiment [3], 24100 pM. Also, the binding result in experiment [2] is on record as “no binding”.

B10: ADI-21030 (antibody, V domains shown)
VH: EVQLVESGGGLVKPGGSLRLSCAASGFKFSTYYMSWIRQAPGKGLEWVSNISGGSSYSNHADSVKGRFTISRDNAKNSLYLEMNSLRAEDTAVYYCAREDLMGVSGLAYFEYWGQGILVTVSS
VL: QPVLTQPPSVSGAPGQRVTISCTGRSSNIGAGYDVNWYKQLPGAVPKVLIYGNTNRPSGVPDRFSGSKSGNSASLAITGLQAEDEADYYCQSYDRNLGYVFGTGTKLTVL
Regarding B10, the Kd in experiment [1] amounted to 257 pM; in experiment [3], 301 pM. The binding result in experiment [2] is given as “no binding”.

B11: ADI-20991 (antibody, V domains shown)
VH: EVQLVESGGNLVKPGGSLRLSCAASGFTFSGYYMSWIRQAPGKGLEWISDISGGSSYTNYADSVKGRFTISRDNAKNSLYLQMNSLRAEDTAMYYCARVEYDTTGPFHFDYWGQGTLVTVSS
VL: QPVLTQPPSVSGAPGQRVTISCTGSSSNIGAGYDVHWYQQLPGTAPKLLIYGNNNRPSGVPDRLSGSKSGTSASLAITGLQAEDEADYYCQSYDSSLSGYVFGTGTKVTVL
On to B11, for which the Kd in experiment [1] is 234 pM; in experiment [3] it was 258 pM. Besides, the binding result in experiment [2] was “no binding”.

B12: ADI-21027 (antibody, V domains shown)
VH: QVQLQESGPGLVKPSGTLSLTCVVSGGSIRSHNYWTWVRQPPGKGLEWIGEIYHSGNTNYNPSLKSRVTLSIDKSKNVFSLRLNSVTAADTAVYYCVGGGPFAPYYFENWGQGTLVTVSS
VL: B11 VL with P2S, D34A, Q39H, G52D, L64F, T71S, S95R, V108L
Consider B12, for which the Kd amounted to 296 pM in experiment [1] and 340 pM in experiment [3]. The binding result in experiment [2] is recorded as “no binding”.

B13: ADI-21025 (antibody, V domains shown)
VH: EVQLVESGGGLVRPGGSLRLSCEASGLKLSGYSMNWVRQAPGKGLEWVSSISASSSYIHYADSLKGRFTISRDNAKNSLYLQMNSLRAEDTAVYYCVASWLTPGWFDPWGQGTLVTVSS
VL: B11 VL with R17T, N54T, L64F, I77V, A86G, Y100S, V101A, T104G, V108L
Regarding B13, the figures for the Kd in experiment [1] and in experiment [3] were 242 pM and 295 pM, respectively. Further, the binding result in experiment [2] is on record as “no binding”.

B14: ADI-20986 (antibody, V domains shown)
VH: EVQLVESGGGLVQPGGSLRLSCVASGFTFSNYWMNWVRQAPGKGLEWVANIKEDGSEIKYVDSVKGRFTISRDNAKNSLYLQMNSLRAEDTAVYYCARTEDSSSWFVAIDYYNYMDVWGKGTTVTVSS
VL: DIQVTQSPGTLSLSPGERATLSCRASQTVSSSYLAWYQQKPGQAPRLLFYGASSRATDIPDRFSASGSGTDFTLTIHRLEPEDFAVYYCQLYGRSPPYTFGQGTKVEIK
Regarding B14, the figures for the Kd in experiment [1] and in experiment [3] were 414 pM and 1250 pM, respectively. The binding result in experiment [2] is recorded as “no binding”.

B15: ADI-21014 (antibody, V domains shown)
VH: QVQLQESGPGLVKPSETLSLICTVSGGSISNYYWSWIRQPPGKGLEWIGYVWFGTTKYNPSLKNRVTISVDTGKNQVSLKVNSVTAADTAIYYCARDSSIWYRGAFEIWGQGTTVTVSS
VL: DIRLTQSPSSLSASVGDRVTITCQASQDISNHLNWYQQRPGKAPELLIYDASTLETGGPSRFSGSGSGTDFTLTISSLQPEDFADYYCQQYDNLPVTFGGGTKVDIK
B15: the Kd turned out to be 408 pM in experiment [1] and 378 pM in experiment [3]. The binding result in experiment [2] is “no binding”.

B16: ADI-20979 (antibody, V domains shown)
VH: EVQLQESGPGLVKPSETLSLTCTVSGGSLRSYYWSWIRQPPGKGLEWIGNIYYGGSTNYNSSLKGRVTISIDTSKNQFSLRLSSVTAADTAVYYCARDGLFPMGEWDYWGQGILVTVSS
VL: QSALTQPASVSGSPGQSITISCTGTSNDVGDYNYVSWYQQHPGEAPKLMIYEVTNRPSGVSDRFSGSKSGNTASLTISGLQAEDEADYYCSSYTSSTSVVFGGGTQLTVL
notes: also called Ab 232
Turning to B16, the results for the Kd in experiment [1] and in experiment [3] were 979 pM and 4000 pM, respectively. In experiment [2], the binding result is given as “no binding”.

B17: ADI-20988 (antibody, V domains shown)
VH: EVQLVESGGEVKKPGASVKVSCKTSGYPFSNYGISWMRLAPGQGLEWMGWISSYNGNTYYTKKFQGRVSMTTDTSTSTAYMELRSLRSDDTAVYYCARDVPVIAAHTFEYWGQGTLVTVSS
VL: ETTLTQSPLSLPVTLGQPASISCRSSESLVYSDGNTYLSWFQQRPGQSPRRIIYKVSNRDSGVPDRFSGSGSGTDFTLKISRVEAEDVGVYYCMQATHWPRDTFGQGTKVDIK
notes: also called Ab 240
For B17, the dissociation constant Kd in experiment [1] came to 294 pM; in experiment [3], 1290 pM. Besides, in experiment [2], the binding result is “no binding”.

B18: ADI-21017 (antibody, V domains shown)
VH: QVQLVESGTEVKKPGASVKVSCKASGYTFTNYGITWVRQAPGQGLEWMGCISGYNGNTNYAQNLQGRVTMTTDTSTNTAYMELRSLISDDTAVYYCARDTGLTAAALLDYWGQGTLVTVSS
VL: DIVLTQSPLSLPVTLGQPASISCRSSQSLVYSDGNTYLSWFQQRPGQSPRRLIYKVSNRDSGVPDRFGGSGSGTYFTLKISRVEAEDVGIYYCMQAIHWPLTFGGGTKVEIK
Regarding B18, the Kd was 305 pM in experiment [1] and 1560 pM in experiment [3]. Besides, the binding result in experiment [2] is on record as “no binding”.
